Reference: patent US20090175881A1 (SCHERING, published 2009)
Where “and” joins values, the source holds several entries; their conditions need not be identical. Equal entries are not always repeated.

T1: rhIL-17A (human, UniProt Q16552 24-155)
T1 sequence: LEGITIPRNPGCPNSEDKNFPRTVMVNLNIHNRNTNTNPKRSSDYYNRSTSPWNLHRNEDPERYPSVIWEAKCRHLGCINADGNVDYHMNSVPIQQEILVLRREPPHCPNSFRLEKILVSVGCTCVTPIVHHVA

T2: cynomolgus monkey IL-17A (cynomolgus monkey, UniProt A0A2K5TTB0 24-155)
T2 sequence: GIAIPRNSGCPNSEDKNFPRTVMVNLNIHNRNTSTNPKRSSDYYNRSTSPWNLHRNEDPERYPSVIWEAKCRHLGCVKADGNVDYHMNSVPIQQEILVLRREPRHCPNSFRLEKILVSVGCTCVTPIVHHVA

T3: native human IL-17A (human, UniProt Q16552 24-155)
T3 sequence: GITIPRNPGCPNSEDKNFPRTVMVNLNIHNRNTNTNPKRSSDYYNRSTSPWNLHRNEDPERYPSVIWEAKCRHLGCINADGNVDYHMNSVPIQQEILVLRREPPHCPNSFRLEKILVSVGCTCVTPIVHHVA

T4: FLAG-huIL-17A (human, UniProt Q16552 24-155)
T4 construct: also called FLAG-huL-17A; FLAG-IL-17A
T4 sequence: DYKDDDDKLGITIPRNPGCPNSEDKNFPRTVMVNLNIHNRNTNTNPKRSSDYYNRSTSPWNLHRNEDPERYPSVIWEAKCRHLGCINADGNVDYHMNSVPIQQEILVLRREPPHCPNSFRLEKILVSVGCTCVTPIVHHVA

T5: mouse IL-17A (mouse, UniProt Q62386 26-158, limits assumed)
T5 construct: also called mu IL-17A; mu IL-17
T5 sequence (looked up): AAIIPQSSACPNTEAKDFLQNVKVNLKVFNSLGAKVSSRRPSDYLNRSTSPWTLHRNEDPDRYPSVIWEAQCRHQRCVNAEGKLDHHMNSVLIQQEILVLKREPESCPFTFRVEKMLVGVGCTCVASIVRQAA

T6: R&D Systems human IL-17A (human, UniProt Q16552 20-155)
T6 construct: Bought from R&D Systems, made in E. coli; also called R&D IL-17A; E. coli-derived human IL-17 (IL-17A)
T6 sequence: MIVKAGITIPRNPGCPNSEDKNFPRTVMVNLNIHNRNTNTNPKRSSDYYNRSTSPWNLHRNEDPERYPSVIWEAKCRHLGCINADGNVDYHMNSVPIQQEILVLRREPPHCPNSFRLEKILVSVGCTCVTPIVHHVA

T7: FLAG-tagged mouse IL-17A (mouse, UniProt Q62386 26-158, limits assumed)
T7 construct: also called mIL-17A; intact mIL-17A
T7 sequence: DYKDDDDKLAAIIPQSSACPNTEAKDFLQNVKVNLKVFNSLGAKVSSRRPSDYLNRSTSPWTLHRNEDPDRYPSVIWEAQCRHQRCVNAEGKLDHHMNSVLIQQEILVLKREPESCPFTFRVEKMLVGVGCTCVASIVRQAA

T8: FLAG-tagged human IL-17F (human, UniProt Q96PD4 31-163, limits assumed)
T8 construct: also called intact IL-17F
T8 sequence: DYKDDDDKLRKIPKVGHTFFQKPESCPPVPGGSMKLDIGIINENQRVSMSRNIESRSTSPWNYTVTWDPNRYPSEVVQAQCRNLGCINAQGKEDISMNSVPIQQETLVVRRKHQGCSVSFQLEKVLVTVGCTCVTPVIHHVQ

B1: rat 1D10 (antibody, V domains shown)
VH: QVQLKESGPGLVQPSQTLSLTCTVSGFSLTNYYVHWVRQPPGKGLEWMGGVWNDGDTSYNSVLRSRLSITRDTSKSQVLLKMSSLQTEDTATYYCAREGREGFVGYYVMDAWGPGASVTVSS
VL: DIQMTQSPSFLSASVGERVTLSCKASQNINKYLDWFQQKLGEAPKLLIYNADNLHTGIPSRFSGSGSFSDFILTISSLQPEDDATYFCLQRESWPYTFGAGTKLELKR
notes: Parental rat monoclonal antibody; also called ID10; anti-IL-17A antibody 1D10
B2: rat 23E12 (antibody, V domains shown)
VH: QVQLKESGPGLVQPSQTLSLTCTVFGFSLTNNGVTWVRQPPGKGLEWIAEVSSGGSTDYNSALKSRLSISRDTSKSQVFLRMNSLQTEDTAIYFCARQEVFTGLLDYWGQGVMVTVSS
VL: DIQMTQSPASLSASLGETVTIQCQASEDIYSGLAWYHQKPGKSPQLLILGASRLHDGVPSRFSGSGSGIEYSLKINNMQTEDEGIYFCQQGLKYPPTFGGGTKLELKR
notes: Parental rat monoclonal antibody (hybridoma PTA-7740)
B3: humanized 16C10 wt (antibody, human IgG1, kappa, V domains shown)
VH: QVQLQESGPGLVKPSETLSLTCTVSGFSLPSHSVSWIRQPPGKGLEWIGIIWNNGGTDYNSAFKSRVTISVDTSKNQFSLKLSSVTAADTAVYYCARNMYITDYYYENYFMDAWGQGTLVTVSS
VL: DIVMTQSPLSLPVTPGEPASISCKSSQSLLFSENQKNYLAWYLQKPGQSPQLLIYWTSTRQSGVPDRFSGSGSGTDFTLKISRVEAEDVGVYYCQQSYYTPYTFGQGTKVEIKR
notes: Humanized antibody with the parental rat CDRs; Human IgG1/kappa; also called hu 16C10 wt; hu16C10 (wt)
B4: humanized 16C10 (VH N54Q/M96A) (antibody, human IgG1, kappa, V domains shown)
VH: QVQLQESGPGLVKPSETLSLTCTVSGFSLPSHSVSWIRQPPGKGLEWIGIIWNQGGTDYNSAFKSRVTISVDTSKNQFSLKLSSVTAADTAVYYCARNAYITDYYYENYFMDAWGQGTLVTVSS
VL: DIVMTQSPLSLPVTPGEPASISCKSSQSLLFSENQKNYLAWYLQKPGQSPQLLIYWTSTRQSGVPDRFSGSGSGTDFTLKISRVEAEDVGVYYCQQSYYTPYTFGQGTKVEIKR
notes: Human IgG1/kappa; also called hu 16C10; hu16C10
B5: hu 16C10 VH N54Q/M96A/M100hF (antibody, human IgG1, kappa, V domains shown)
VH: QVQLQESGPGLVKPSETLSLTCTVSGFSLPSHSVSWIRQPPGKGLEWIGIIWNQGGTDYNSAFKSRVTISVDTSKNQFSLKLSSVTAADTAVYYCARNAYITDYYYENYFFDAWGQGTLVTVSS
VL: DIVMTQSPLSLPVTPGEPASISCKSSQSLLFSENQKNYLAWYLQKPGQSPQLLIYWTSTRQSGVPDRFSGSGSGTDFTLKISRVEAEDVGVYYCQQSYYTPYTFGQGTKVEIKR
notes: Human IgG1/kappa; also called hu 16C10 VH 54Q/M96A/M100hF; hu16C10 (N54Q/M96A/M100hF)
B6: rat 16C10 (antibody, rat IgG1, V domains shown)
VH: QVELRESGPGLVQPSQTLSLTCTVSGFSLPSHSVSWIRQPPGKGLEWMGIIWNNGGTDYNSAFKSRLTISRDTSKSQVFLKMNSLQTEDTAMYFCARNMYITDYYYENYFMDAWGQGASVTVSS
VL: DIVMTQSPSSLAVSIGETVTLNCKSSQSLLFSENQKNYLAWYQHKSGQSPKLLVYWTSTRQSGVPDRFMGSGSGTDFTLTISSVQAEDLAIYYCQQSYYTPYTFGAGTKLELKR
notes: also called 16C10C; antibody 16C10

How the values were obtained:
rhIL-17A [1] = molecular target: T1, rhIL-17A; test: cell-based or functional assay
cynomolgus monkey IL-17A [2] = molecular target: T2, cynomolgus monkey IL-17A; test: cell-based or functional assay
rhIL-17A [3] = molecular target: T1, rhIL-17A; test: cell-based or functional assay; remark: listed apart in the source
native human IL-17A [4] = molecular target: T3, native human IL-17A; test: cell-based or functional assay
cynomolgus monkey IL-17A [5] = molecular target: T2, cynomolgus monkey IL-17A; test: cell-based or functional assay; remark: listed apart in the source
rhIL-17A [6] = molecular target: T1, rhIL-17A; test: cell-based or functional assay; remark: listed apart in the source
native human IL-17A [7] = molecular target: T3, native human IL-17A; test: cell-based or functional assay; remark: listed apart in the source
cynomolgus monkey IL-17A [8] = molecular target: T2, cynomolgus monkey IL-17A; test: cell-based or functional assay; remark: listed apart in the source
rhIL-17A [9] = molecular target: T1, rhIL-17A; test: cell-based or functional assay; remark: listed apart in the source
FLAG-huIL-17A [10] = molecular target: T4, FLAG-huIL-17A; test: ECL (Origen), antibody titrated against biotinylated antigen; area under the curve
Excerpt: (§1) Origen electrochemiluminescence technology, developed by IGEN, Inc. (Gaithersburg, Md., USA), and was employed to measure the binding of rat anti-human IL-17A antibodies (and one chimeric antibody) to FLAG-huL-17A. […] Electrochemiluminescence technology uses a stable ruthenium metal chelate (Ori-TAG) which, in the presence of tripropylamine (TPA), generates electrochemiluminescence upon voltage application. Paramagnetic beads, microns in diameter, act as the solid phase and facilitate rapid assay kinetics. The bead/complex is channeled through a flow cell and captured at an electrode by magnetic application. Voltage is applied and resulting electrochemiluminescence is measured.
(§2) ECL assays were performed as follows. Three-fold serial dilutions of anti-human IL-17A mAbs in 50 μl of the assay buffer were made in a 96-well microtiter plate to give 1-3 μg/ml final concentration in the first well. […] Finally 50 μl of Origen Streptavidin-Dynabeads at 0.1 mg/ml was added to each well. […] GraphPad Prism software (GraphPad Software, San Diego, Calif., USA) was used to plot the data and calculate area under the curve, which is a rough measure of binding.

FLAG-huIL-17A [11] = molecular target: T4, FLAG-huIL-17A; test: KinExA, solution equilibrium
Description: (§3) The equilibrium dissociation constants (Kd) for anti human IL-17A antibodies were determined using the KinExA 3000 instrument (Sapidyne Instruments Inc., Boise, Id., USA). KinExA uses the principle of the Kinetic Exclusion Assay method based on measuring the concentration of uncomplexed antibody in a mixture of antibody, antigen and antibody-antigen complex. […] The concentration of free antibody is measured by exposing the mixture to a solid-phase immobilized antigen for a very brief period of time. l practice, this is accomplished by flowing the solution phase antigen-antibody mixture past antigen-coated particles trapped in a flow cell. Data generated by the instrument are analyzed using custom software.
(§4) IL-17A was derived from either human (“hu”), cynomolgus monkey (“cyno”), or mouse (“mu”). IL-17A from the same species was used in both the immobilized and solution phases for each KinExA determination. Poly(methyl-methacrylate) (PMMA) particles (98 micron) were coated with human, cyno or mouse IL-17A according to Sapidyne “Protocol for coating PMMA particles with biotinylated ligands having short or nonexistent linker arms.” All experimental procedures were done according to the KinExA 3000 manual. All runs were done in duplicate.
(§5) Two-fold serial dilutions of the antigen were prepared and mixed with the antibody at constant concentration. The mixture was incubated for 2 hours at 25° C. to equilibrate.

cynomolgus monkey IL-17A [12] = molecular target: T2, cynomolgus monkey IL-17A; test: KinExA, solution equilibrium
Description: as §3, §4, §5

mouse IL-17A [13] = molecular target: T5, mouse IL-17A; test: KinExA, solution equilibrium
Description: as §3, §4, §5

cynomolgus monkey IL-17A [14] = molecular target: T2, cynomolgus monkey IL-17A; test: ECL (Origen); area under the curve
Excerpt: as §1, §2

mouse IL-17A [15] = molecular target: T5, mouse IL-17A; test: ECL (Origen); area under the curve
Excerpt: as §1, §2

rhIL-17A [16] = molecular target: T1, rhIL-17A; test: cell-based or functional assay; remark: listed apart in the source
cynomolgus monkey IL-17A [17] = molecular target: T2, cynomolgus monkey IL-17A; test: cell-based or functional assay; remark: listed apart in the source
rhIL-17A [18] = molecular target: T1, rhIL-17A; test: KinExA, solution equilibrium
Description: as §3, §4, §5

R&D Systems human IL-17A = molecular target: T6, R&D Systems human IL-17A; test: sandwich ELISA, IL-17A captured on rat 12E6, antibody titrated
Description: (§6) Binding of anti-human-IL-17A monoclonal antibodies to rhIL-17A is assessed using an ELISA as follows. Briefly, a capture antibody is bound to the wells of a microtiter plate, after which a fixed concentration of rhIL-17A is added. The monoclonal anti-IL-17A to be assayed is then titrated versus the bound rhIL-17A on the plate to determine the concentration of antibody needed to achieve half-maximal binding. A more detailed protocol follows.
(§7) A 96-well microtiter plate is coated with 100 μl/well of capture antibody (rat anti-hIL-17A 12E6, 0.5 μg/ml) in carbonate coating buffer pH 9.5 (the “assay plate”). Plates are incubated covered at 4° C. for 24 to 48 hours. The assay plate is washed three times in a plate washer (SkanWasher, Molecular Devices, Sunnyvale, Calif., USA) and blotted dry. The plate is then blocked with 200 μl/well of ELISA assay buffer (20 mM Tris-HCl, 0.15 M NaCl, pH7.4, 0.5% BSA, 0.05% Tween-20, SM EDTA) for one hour at 25° C. on an orbital shaker. The plate is washed, and 100 μl/well of either adenovirus-derived rhIL-17A or E. coli-derived human IL-17 (IL-17A) (R&D Systems, Minneapolis, Minn., USA) (0.1 g/ml) is added in ELISA assay buffer and incubated for 2 hours at 25° C. on an orbital shaker. […] Plates are incubated for 1.5 hours at 25° C. on an orbital shaker. Plates are washed and 100 μl/well secondary antibody (F(ab′)₂ goat anti-human kappa light chain—HRP, 1:20,000 dilution, BioSource, Carlsbad, Calif., USA) is added, except for assay blank wells. Plates are washed twice (i.e. two cycles of 3 washes per cycle) with plate rotation between cycles. TMB substrate (Kirkegaard & Perry Laboratories, Gaithersburg, Md., USA) is added at 100 μl/well and incubated 3-5 minutes on an orbital shaker. Stop solution is added (100 μl/well) and the plate is read for absorbance at 450-570 um on a plate reader (Versamax, Molecular Devices, Sunnyvale, Calif., USA).

rhIL-17A [19] = molecular target: T1, rhIL-17A; test: as above
Description: as §6, §7

rhIL-17A [20] = molecular target: T1, rhIL-17A; test: indirect ELISA, rhIL-17A coated on plate
Description: Binding of anti-human-IL-17A monoclonal antibodies to rhIL-17A is assessed using an indirect enzyme-linked immunosorbent assay (ELISA). Briefly, a fixed concentration of rhIL-17A is bound directly to the wells of a microtiter plate. The monoclonal anti-IL-17A to be assayed is then is added to the rhIL-17A coated plate, where the antibody is captured and quantitated.
A 96-well U-bottom MaxiSorp plate is coated with 50 μl/well of rhIL-17A (0.5 μg/ml) in carbonate coating buffer (the “assay plate”). Carbonate coating buffer is 2.9 g/L NaHFCO₃, 1.6 g/L Na₂CO₃, pH 9.4. Plates are incubated covered at 4° C. overnight. Monoclonal antibodies to be screened are serially diluted in duplicate across the rows of a V-bottom plate such that the final volume is 60 μl/well (the “serial dilution plate”). The assay plate is washed three times with PBS-Tween in a plate washer (SkanWasher, Molecular Devices, Sunnyvale, Calif., USA) and blotted dry. PBS-Tween is obtained by adding 0.5 ml/L Tween 20 to 1×PBS. Fifty μl from each well of the serial dilution plate is transferred to the assay plate and incubated at 25° C. for one hour. Secondary antibodies are diluted 1/2000 in diluent (PBS-BSA-Tween, which is PBS-Tween with 1 g/L BSA). The secondary antibody for rat monoclonal antibodies is goat anti-rat IgG (H+L)—HRP (Jackson ImmunoResearch Laboratories, Inc., West Grove, Pa., USA). The secondary antibody for chimeric and humanized monoclonal antibodies is F(ab′)₂ goat anti-human IgG Fcγ—HRP (Jackson ImmunoResearch Laboratories, Inc.). The assay plate is washed as before. Diluted secondary antibodies (100 μl/well) are added to the appropriate wells in the assay plate, and the plate is incubated at 25° C. for 45 minutes. The assay plate is washed as before.

FLAG-tagged mouse IL-17A = molecular target: T7, FLAG-tagged mouse IL-17A; test: observation on which Example 19 is based
mouse IL-17A [21] = molecular target: T5, mouse IL-17A; test: ECL (Origen)
Description: as §2

FLAG-tagged human IL-17F = molecular target: T8, FLAG-tagged human IL-17F; test: AlphaScreen
Description: Each of these three proteins was linked to an N-terminal FLAG® peptide tag (see residues 1 to 9 of SEQ ID NO.: 42). […] Donor and acceptor beads were mixed, illuminated at 680 nm, and emission was measured at 520-620 nm.

Row | Binder | IC50, inhibition of IL-6 production in NHDF cells, rhIL-17A (rhIL-17A [1]) | IC50, inhibition of IL-6 production in NHDF cells, cyno IL-17A (cynomolgus monkey IL-17A [2]) | IC50, synoviocyte IL-8 production, rhIL-17A (30 ng/ml) (rhIL-17A [3]) | IC50, synoviocyte IL-8 production, Native huIL-17A (10 ng/ml) (native human IL-17A [4]) | IC50, synoviocyte IL-8 production, NHP IL-17A (30 ng/ml) (cynomolgus monkey IL-17A [5]) | IC50, synoviocyte IL-6 production, rhIL-17A (30 ng/ml) (rhIL-17A [6]) | IC50, synoviocyte IL-6 production, Native huIL-17A (10 ng/ml) (native human IL-17A [7]) | IC50, synoviocyte IL-6 production, NHP IL-17A (30 ng/ml) (cynomolgus monkey IL-17A [8]) | IC50, foreskin fibroblast (HS68) assay, rhIL-17A-induced IL-6 (rhIL-17A [9]) | Area Under Peak (FLAG-huIL-17A [10]) | Kd (FLAG-huIL-17A [11]) | Kd (cynomolgus monkey IL-17A [12]) | Kd (mouse IL-17A [13]) | Area Under Peak (cynomolgus monkey IL-17A [14]) | IC50, Ba/F3 hIL-17Rc-mGCSFR proliferation assay, IL-17A at 276 pM (rhIL-17A [16]) | IC50, Ba/F3 hIL-17Rc-mGCSFR proliferation assay, IL-17A at 100 pM (cynomolgus monkey IL-17A [17]) | Kd (rhIL-17A [18]) | EC50 (R&D Systems human IL-17A) | EC50 (rhIL-17A [19]) | IC50, Ba/F3 hIL-17Rc-mGCSFR proliferation assay, IL-17A at 100 pM (rhIL-17A [16]) | other results
1 | B1 | 1 nM | 0.4 nM | 0.059 µg/mL | 0.04 µg/mL | 0.038 µg/mL | 0.105 µg/mL | 0.025 µg/mL | 0.065 µg/mL | 0.065 nM | 477000 | 0.0017 nM | 0.0098 nM | 0.0103 nM | 136000 | 223 pM | 19 pM | – | – | – | – | Area Under Peak (mouse IL-17A [15]): 252000
2 | B2 | 1 nM | 0.3 nM | – | – | – | – | – | – | 0.126 nM | 285000 | 0.0028 nM | 0.028 nM | 7 nM | 111000 | – | – | – | – | – | – | Area Under Peak (mouse IL-17A [15]): 143000
3 | B3 | – | – | 0.042 µg/mL | – | – | 0.08 µg/mL | – | – | – | – | – | – | – | – | – | – | 0.0088 nM | 0.13 nM | 0.066 nM | – | EC50 (rhIL-17A [20]): 0.212 nM
4 | B4 | – | – | 0.038 µg/mL | 0.05 µg/mL | 0.038 µg/mL | 0.07 µg/mL | 0.025 µg/mL | 0.07 µg/mL | – | – | – | 0.0163 nM | – | – | 149 pM | 17 pM | 0.0039 nM | 0.136 nM | 0.092 nM | 15 pM and 13 pM and 27 pM | –
5 | B5 | – | – | 0.04 µg/mL | – | – | 0.07 µg/mL | – | – | – | – | – | – | – | – | – | – | 0.01 nM | 0.118 nM | 0.08 nM | 11 pM | –
6 | B6 | 0.5 nM | 0.2 nM | 0.038 µg/mL | – | 0.033 µg/mL | 0.063 µg/mL | – | 0.06 µg/mL | 0.067 nM | 286000 | 0.0036 nM | 0.0017 nM | – | 152000 | 162 pM | 27 pM | 0.006 nM | – | – | 20 pM | binding result (FLAG-tagged mouse IL-17A): no binding; binding result (mouse IL-17A [21]): no binding (tested: 1-3 µg/ml antibody in the first well); binding result (FLAG-tagged human IL-17F): no binding; EC50 (rhIL-17A [20]): 0.274 nM
